Legend:
Assay in all cases: purified protein
Assay type in all cases: biochemical, Asarum sieboldii
Conditions in all cases: 0.5 mM NADPH, 50 mM Tris-HCl pH 7.5, 2 mM DTT, 30 °C
purified protein [1] = substrate: COc1cc(/C=C/C=O)cc(OC)c1O
purified protein [2] = substrate: COc1cc(/C=C/C=O)ccc1O
purified protein [3] = substrate: O=C/C=C/c1ccc(O)cc1

B1: AsCAD5 (Asarum sieboldii) (protein)
chain: MSNQSGTDNCLGWAARDPSGILSPHSFSRRSIGSDDVSLKITHCGVCYADVAWTRNKVGDSMYPLVPGHEIVGIVQEVGSDVNRFKIGDHVGVGTYVNSCRECVYCKDKLEVVCQKGPTLTFNSLDVDGTITKGGYSSHIVVNERYCYRIPDGYPLVSAAPLLCAGITVYAPMMRHKMNQPGKSLGVIGLGGLGHMAVKFGKAFGLNVTVFSTSESKKEEALKLLGADRFVISSDKKQMEGVMKSLDFIIDTASGDHPFDPYMALLKTTGILVLVGFPSEVKFNPGSLILGLRTLSGSVTGGTKDTQEMLEFCAANKIYPEIELINIEYINEALERLINREVKYRFVIDIENSLK
notes: full ORF 1068 bp (about 355 residues), pMAL-C5X MBP fusion in E. coli Rosetta (DE3), MBP tag removed by Factor Xa, ca. 40 kDa
- Km (purified protein [1]): 35.02 ± 8.043 µM
- Vmax (purified protein [1]): 26.9 µmol/min/mg
- kcat (purified protein [1]): 291 s⁻¹
- kcat/Km (purified protein [1]): 8.3e+06 M⁻¹ s⁻¹
- Km (purified protein [2]): 27.32 ± 6.186 µM
- Vmax (purified protein [2]): 20.5 µmol/min/mg
- kcat (purified protein [2]): 222 s⁻¹
- kcat/Km (purified protein [2]): 8.12e+06 M⁻¹ s⁻¹
- Km (purified protein [3]): 45.52 ± 8.888 µM
- Vmax (purified protein [3]): 23 µmol/min/mg
- kcat (purified protein [3]): 249 s⁻¹
- kcat/Km (purified protein [3]): 5.47e+06 M⁻¹ s⁻¹
